B1: U4/U6 small nuclear ribonucleoprotein Prp31 (Homo sapiens), Q8WWY3 (parent)
chain: MSLADELLADLEEAAEEEEGGSYGEEEEEPAIEDVQEETQLDLSGDSVKTIAKLWDSKMFAEIMMKIEEYISKQAKASEVMGPVEAAPEYRVIVDANNLTVEIENELNIIHKFIRDKYSKRFPELESLVPNALDYIRTVKELGNSLDKCKNNENLQQILTNATIMVVSVTASTTQGQQLSEEELERLEEACDMALELNASKHRIYEYVESRMSFIAPNLSIIIGASTAAKIMGVAGGLTNLSKMPACNIMLLGAQRKTLSGFSSTSVLPHTGYIYHSDIVQSLPPDLRRKAARLVAAKCTLAARVDSFHESTEGKVGYELKDEIERKFDKWQEPPPVKQVKPLPAPLDGQRKKRGGRRYRKMKERLGLTEIRKQANRMSFGEIEEDAYQEDLGFSLGHLGKSGSGRVRQTQVNEATKARISKTLQRTLQKQSVVYGGKSTIRDRSSGTASSVAFTPLQGLEIVNPQAAEKKVAEANQKYFSSMAEFLKVKGEKSGLMST
B2: Estrogen receptor beta (Homo sapiens), Q92731-3 (parent)
chain: MDIKNSPSSLNSPSSYNCSQSILPLEHGSIYIPSSYVDSHHEYPAMTFYSPAVMNYSIPSNVTNLEGGPGRQTTSPNVLWPTPGHLSPLVVHRQLSHLYAEPQKSPWCEARSLEHTLPVNRETLKRKVSGNRCASPVTGPGSKRDAHFCAVCSDYASGYHYGVWSCEGCKAFFKRSIQGHNDYICPATNQCTIDKNRRKSCQACRLRKCYEVGMVKCGSRRERCGYRLVRRQRSADEQLHCAGKAKRSGGHAPRVRELLLDALSPEQLVLTLLEAEPPHVLISRPSAPFTEASMMMSLTKLADKELVHMISWAKKIPGMRGNA
partner: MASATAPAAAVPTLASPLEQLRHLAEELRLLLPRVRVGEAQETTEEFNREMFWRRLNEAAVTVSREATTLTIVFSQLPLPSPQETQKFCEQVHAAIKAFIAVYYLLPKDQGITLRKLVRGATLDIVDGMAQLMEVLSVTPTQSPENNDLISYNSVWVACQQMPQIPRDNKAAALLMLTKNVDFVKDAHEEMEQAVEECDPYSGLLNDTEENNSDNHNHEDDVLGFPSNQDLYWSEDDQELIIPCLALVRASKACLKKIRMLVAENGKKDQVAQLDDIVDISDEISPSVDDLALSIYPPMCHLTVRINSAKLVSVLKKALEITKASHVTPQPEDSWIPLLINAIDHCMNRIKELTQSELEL
B3: LHFPL tetraspan subfamily member 5 protein (Homo sapiens), Q8TAF8 (parent)
chain: MVKLLPAQEAAKIYHTNYVRNSRAVGVMWGTLTICFSVLVMALFIQPYWIGDSVNTPQAGYFGLFSYCVGNVLSSELICKGGPLDFSSIPSRAFKTAMFFVALGMFLIIGSIICFSLFFICNTATVYKICAWMQLAAATGLMIGCLVYPDGWDSSEVRRMCGEQTGKYTLGHCTIRWAFMLAILSIGDALILSFLAFVLGYRQDKLLPDDYKADGTEEV
partner: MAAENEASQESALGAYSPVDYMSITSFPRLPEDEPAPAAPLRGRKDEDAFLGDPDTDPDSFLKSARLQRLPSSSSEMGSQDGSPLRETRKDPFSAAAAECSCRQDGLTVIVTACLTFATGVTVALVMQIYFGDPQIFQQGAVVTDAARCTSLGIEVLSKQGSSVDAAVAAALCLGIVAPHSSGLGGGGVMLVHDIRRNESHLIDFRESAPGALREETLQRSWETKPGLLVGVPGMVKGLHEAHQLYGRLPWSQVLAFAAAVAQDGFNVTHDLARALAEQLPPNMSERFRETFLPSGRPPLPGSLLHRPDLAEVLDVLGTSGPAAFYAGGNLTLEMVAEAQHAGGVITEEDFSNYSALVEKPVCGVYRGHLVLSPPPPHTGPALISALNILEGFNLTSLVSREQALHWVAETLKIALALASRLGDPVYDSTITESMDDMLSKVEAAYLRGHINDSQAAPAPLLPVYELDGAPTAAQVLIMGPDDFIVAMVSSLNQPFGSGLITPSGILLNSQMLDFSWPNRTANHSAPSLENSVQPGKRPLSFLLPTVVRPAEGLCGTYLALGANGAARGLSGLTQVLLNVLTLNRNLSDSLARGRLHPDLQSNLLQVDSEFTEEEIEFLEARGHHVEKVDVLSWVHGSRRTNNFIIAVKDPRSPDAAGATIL
B4: Zinc finger CCHC domain-containing protein 12 (Homo sapiens), Q6PEW1 (parent)
chain: MASIIARVGNSRRLNAPLPPWAHSMLRSLGRSLGPIMASMADRNMKLFSGRVVPAQGEETFENWLTQVNGVLPDWNMSEEEKLKRLMKTLRGPAREVMRVLQATNPNLSVADFLRAMKLVFGESESSVTAHGKFFNTLQAQGEKASLYVIRLEVQLQNAIQAGIIAEKDANRTRLQQLLLGGELSRDLRLRLKDFLRMYANEQERLPNFLELIRMVREEEDWDDAFIKRKRPKRSESMVERAVSPVAFQGSPPIVIGSADCNVIEIDDTLDDSDEDVILVESQDPPLPSWGAPPLRDRARPQDEVLVIDSPHNSRAQFPSTSGGSGYKNNGPGEMRRARKRKHTIRCSYCGEEGHSKETCDNESDKAQVFENLIITLQELTHTEMERSRVAPGEYNDFSEPL

Variants of: B1
Settings: with pnma1_human PNMA1, Q8ND90
Target sequence in this assay (Q8ND90 whole entry): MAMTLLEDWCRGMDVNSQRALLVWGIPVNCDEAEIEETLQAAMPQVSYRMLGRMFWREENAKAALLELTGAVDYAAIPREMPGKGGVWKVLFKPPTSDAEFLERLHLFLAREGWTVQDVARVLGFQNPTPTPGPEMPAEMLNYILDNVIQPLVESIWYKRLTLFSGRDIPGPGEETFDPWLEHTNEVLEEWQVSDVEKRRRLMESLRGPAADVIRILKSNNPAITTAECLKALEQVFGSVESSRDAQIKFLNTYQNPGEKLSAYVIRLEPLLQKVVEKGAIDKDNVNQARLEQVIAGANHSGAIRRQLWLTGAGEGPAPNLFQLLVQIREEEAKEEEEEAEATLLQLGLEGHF

| Variant | effect of a mutation on the interaction |
| --- | --- |
| L107V | with no effect |

Variants of: B1
Settings: with lzts2_human LZTS2, Q9BRK4

| Variant | effect of a mutation on the interaction |
| --- | --- |
| L107V | with no effect |

Variants of: B1
Settings: with pak5_human PAK5, Q9P286
Sequence of pak5_human PAK5, Q9P286 (Q9P286 whole entry, looked up): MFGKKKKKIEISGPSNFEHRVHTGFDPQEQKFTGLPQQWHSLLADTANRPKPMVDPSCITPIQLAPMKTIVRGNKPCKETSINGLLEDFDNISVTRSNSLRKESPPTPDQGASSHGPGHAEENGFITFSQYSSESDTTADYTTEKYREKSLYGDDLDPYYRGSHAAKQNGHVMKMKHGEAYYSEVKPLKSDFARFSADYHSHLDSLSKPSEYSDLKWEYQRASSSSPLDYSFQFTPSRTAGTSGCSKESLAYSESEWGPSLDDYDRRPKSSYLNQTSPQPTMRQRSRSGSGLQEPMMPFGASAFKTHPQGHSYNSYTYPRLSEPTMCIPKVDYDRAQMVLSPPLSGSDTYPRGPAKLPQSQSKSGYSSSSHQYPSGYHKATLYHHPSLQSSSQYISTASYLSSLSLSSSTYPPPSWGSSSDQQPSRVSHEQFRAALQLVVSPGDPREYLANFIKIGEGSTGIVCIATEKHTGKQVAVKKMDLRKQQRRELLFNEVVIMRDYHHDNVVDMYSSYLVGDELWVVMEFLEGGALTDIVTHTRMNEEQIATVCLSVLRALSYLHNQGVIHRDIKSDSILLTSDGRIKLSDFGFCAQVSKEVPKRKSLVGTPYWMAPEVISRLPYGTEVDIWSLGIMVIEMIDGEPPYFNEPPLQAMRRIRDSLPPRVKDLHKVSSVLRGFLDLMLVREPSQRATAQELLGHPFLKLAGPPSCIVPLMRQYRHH

| Variant | effect of a mutation on the interaction |
| --- | --- |
| L107V | with no effect |

Variants of: B1
Settings: with myome_human PDE4DIP

| Variant | effect of a mutation on the interaction |
| --- | --- |
| L107V | with no effect |

Variants of: B1
Settings: with tsg10_human TSGA10, Q9BZW7
Sequence of tsg10_human TSGA10, Q9BZW7 (Q9BZW7 whole entry): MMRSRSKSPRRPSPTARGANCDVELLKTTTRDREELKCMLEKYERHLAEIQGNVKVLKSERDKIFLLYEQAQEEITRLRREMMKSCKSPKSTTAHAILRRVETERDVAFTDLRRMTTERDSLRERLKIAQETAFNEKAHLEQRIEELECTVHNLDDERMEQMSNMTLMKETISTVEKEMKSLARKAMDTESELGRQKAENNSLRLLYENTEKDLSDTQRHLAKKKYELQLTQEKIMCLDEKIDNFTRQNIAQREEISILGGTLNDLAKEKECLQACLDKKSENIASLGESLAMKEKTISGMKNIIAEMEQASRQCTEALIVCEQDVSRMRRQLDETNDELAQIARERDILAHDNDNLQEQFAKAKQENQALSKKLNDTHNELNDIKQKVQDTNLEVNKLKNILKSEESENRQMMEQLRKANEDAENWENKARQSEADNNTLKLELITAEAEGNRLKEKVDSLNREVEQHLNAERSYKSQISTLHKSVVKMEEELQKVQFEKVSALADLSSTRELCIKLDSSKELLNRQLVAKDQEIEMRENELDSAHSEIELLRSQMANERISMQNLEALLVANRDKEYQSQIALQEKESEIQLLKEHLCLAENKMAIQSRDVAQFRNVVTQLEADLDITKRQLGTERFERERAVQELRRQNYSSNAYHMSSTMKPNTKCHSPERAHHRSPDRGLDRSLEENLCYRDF

| Variant | effect of a mutation on the interaction |
| --- | --- |
| L107V | with no effect |

Variants of: B1
Settings: with ppip1_human PSTPIP1, O43586

| Variant | effect of a mutation on the interaction |
| --- | --- |
| L107V | with no effect |

Variants of: B1
Settings: with fbln4_human EFEMP2, O95967

| Variant | effect of a mutation on the interaction |
| --- | --- |
| L107V | with no effect |

Variants of: B1
Settings: with ldoc1_human LDOC1, O95751
Sequence of ldoc1_human LDOC1, O95751 (O95751 whole entry): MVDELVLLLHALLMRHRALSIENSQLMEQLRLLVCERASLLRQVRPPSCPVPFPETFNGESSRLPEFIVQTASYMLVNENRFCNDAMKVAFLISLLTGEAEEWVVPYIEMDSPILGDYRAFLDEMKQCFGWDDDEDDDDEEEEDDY

| Variant | effect of a mutation on the interaction |
| --- | --- |
| L107V | with no effect |

Variants of: B1
Settings: with znf24_human ZNF24, P17028

| Variant | effect of a mutation on the interaction |
| --- | --- |
| L107V | with no effect |

Variants of: B1
Settings: with KRT15, P19012
Sequence of KRT15, P19012 (P19012 whole entry): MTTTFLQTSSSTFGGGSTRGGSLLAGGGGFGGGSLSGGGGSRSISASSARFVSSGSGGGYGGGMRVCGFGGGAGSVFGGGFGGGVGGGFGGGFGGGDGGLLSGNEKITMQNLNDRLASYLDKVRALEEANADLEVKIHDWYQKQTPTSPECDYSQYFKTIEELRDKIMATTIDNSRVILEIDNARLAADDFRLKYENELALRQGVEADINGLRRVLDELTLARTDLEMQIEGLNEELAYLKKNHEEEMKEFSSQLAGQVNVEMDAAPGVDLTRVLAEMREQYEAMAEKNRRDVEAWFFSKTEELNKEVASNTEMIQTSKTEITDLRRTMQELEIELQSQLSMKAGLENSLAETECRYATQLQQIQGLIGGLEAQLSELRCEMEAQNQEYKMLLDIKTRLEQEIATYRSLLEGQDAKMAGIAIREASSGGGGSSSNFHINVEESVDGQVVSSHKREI

| Variant | effect of a mutation on the interaction |
| --- | --- |
| L107V | with no effect |

Variants of: B1
Settings: with rbmx_human RBMX

| Variant | effect of a mutation on the interaction |
| --- | --- |
| L107V | with no effect |

Variants of: B1
Settings: with HNRNPK

| Variant | effect of a mutation on the interaction |
| --- | --- |
| L107V | with no effect |

Variants of: B1
Settings: with mdfi_human MDFI

| Variant | effect of a mutation on the interaction |
| --- | --- |
| L107V | with no effect |

Variants of: B1
Settings: with ZNF250, P15622-3
Sequence of ZNF250, P15622-3 (P15622 other isoform, or with tags, fused parts or gaps): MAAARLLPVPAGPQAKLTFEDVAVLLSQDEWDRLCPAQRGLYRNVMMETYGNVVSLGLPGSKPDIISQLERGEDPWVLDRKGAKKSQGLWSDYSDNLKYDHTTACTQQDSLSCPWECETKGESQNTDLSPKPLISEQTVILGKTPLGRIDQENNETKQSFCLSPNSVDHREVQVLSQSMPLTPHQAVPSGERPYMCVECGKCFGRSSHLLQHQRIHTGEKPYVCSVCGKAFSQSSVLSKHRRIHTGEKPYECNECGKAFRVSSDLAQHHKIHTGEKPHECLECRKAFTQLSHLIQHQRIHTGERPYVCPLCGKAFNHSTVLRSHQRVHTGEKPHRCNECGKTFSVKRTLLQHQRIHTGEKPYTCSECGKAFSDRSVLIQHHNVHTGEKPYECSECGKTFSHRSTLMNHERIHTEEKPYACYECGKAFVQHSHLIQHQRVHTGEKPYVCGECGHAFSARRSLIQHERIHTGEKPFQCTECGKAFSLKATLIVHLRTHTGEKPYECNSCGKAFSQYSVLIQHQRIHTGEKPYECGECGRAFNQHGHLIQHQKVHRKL

| Variant | effect of a mutation on the interaction |
| --- | --- |
| L107V | with no effect |

Variants of: B1
Settings: with zn587_human ZNF587, Q96SQ5

| Variant | effect of a mutation on the interaction |
| --- | --- |
| L107V | with no effect |

Variants of: B1
Settings: with KRT40, Q6A162

| Variant | effect of a mutation on the interaction |
| --- | --- |
| L107V | with no effect |

Variants of: B1
Settings: with nt2na_human NOTCH2NLA

| Variant | effect of a mutation on the interaction |
| --- | --- |
| L107V | with no effect |

Variants of: B1
Settings: with tfp11_human TFIP11, Q9UBB9
Sequence of tfp11_human TFIP11, Q9UBB9 (Q9UBB9 whole entry): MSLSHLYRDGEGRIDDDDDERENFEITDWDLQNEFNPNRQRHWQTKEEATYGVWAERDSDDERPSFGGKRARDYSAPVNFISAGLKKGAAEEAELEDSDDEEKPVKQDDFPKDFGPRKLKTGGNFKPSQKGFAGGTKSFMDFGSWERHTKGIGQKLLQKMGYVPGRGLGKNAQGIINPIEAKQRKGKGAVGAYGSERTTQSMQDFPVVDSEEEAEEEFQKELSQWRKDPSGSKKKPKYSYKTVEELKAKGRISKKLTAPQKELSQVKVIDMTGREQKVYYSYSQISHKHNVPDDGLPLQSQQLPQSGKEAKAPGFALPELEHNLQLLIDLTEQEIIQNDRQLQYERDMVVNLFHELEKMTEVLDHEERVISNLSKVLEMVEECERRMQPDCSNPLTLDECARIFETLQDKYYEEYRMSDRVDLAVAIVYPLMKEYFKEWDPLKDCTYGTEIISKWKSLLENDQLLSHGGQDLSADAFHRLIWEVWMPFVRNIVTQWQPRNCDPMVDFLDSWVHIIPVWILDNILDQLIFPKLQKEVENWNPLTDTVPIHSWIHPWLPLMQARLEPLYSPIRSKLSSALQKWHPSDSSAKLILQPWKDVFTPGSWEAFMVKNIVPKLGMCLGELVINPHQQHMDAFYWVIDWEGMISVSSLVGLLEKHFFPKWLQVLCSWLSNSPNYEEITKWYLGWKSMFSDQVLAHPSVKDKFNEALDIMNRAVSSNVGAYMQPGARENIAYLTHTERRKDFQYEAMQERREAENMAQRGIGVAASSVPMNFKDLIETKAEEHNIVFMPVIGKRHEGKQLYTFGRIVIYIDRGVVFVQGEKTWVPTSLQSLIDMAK

| Variant | effect of a mutation on the interaction |
| --- | --- |
| L107V | with no effect |

Variants of: B1
Settings: with goga2_human GOLGA2, Q08379

| Variant | effect of a mutation on the interaction |
| --- | --- |
| L107V | with no effect |

Variants of: B1
Settings: with jkip2_human JAKMIP2, Q96AA8

| Variant | effect of a mutation on the interaction |
| --- | --- |
| L107V | with no effect |

Variants of: B1
Settings: with ccd33_human CCDC33, Q8N5R6

| Variant | effect of a mutation on the interaction |
| --- | --- |
| L107V | with no effect |

Variants of: B1
Settings: with zn417_human ZNF417, Q8TAU3
Sequence of zn417_human ZNF417, Q8TAU3 (Q8TAU3 whole entry): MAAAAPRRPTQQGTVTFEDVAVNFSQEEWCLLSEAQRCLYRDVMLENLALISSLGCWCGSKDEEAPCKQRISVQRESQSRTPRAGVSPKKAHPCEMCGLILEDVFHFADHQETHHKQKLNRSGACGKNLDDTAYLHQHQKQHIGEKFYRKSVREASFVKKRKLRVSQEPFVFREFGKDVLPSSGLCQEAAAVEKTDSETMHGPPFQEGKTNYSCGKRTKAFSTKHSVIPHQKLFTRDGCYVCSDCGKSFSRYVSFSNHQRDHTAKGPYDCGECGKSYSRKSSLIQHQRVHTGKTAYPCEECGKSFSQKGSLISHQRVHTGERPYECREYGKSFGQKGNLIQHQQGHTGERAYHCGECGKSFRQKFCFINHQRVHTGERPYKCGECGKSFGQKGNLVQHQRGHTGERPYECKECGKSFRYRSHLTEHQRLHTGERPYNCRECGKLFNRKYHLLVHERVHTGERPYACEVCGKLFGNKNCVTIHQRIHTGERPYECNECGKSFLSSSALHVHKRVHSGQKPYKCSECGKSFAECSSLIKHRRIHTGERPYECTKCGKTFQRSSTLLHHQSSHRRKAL

| Variant | effect of a mutation on the interaction |
| --- | --- |
| L107V | with no effect |

Variants of: B1
Settings: with MTUS2, Q5JR59-3

| Variant | effect of a mutation on the interaction |
| --- | --- |
| L107V | with no effect |

Variants of: B2
Settings: with ccdb1_human CCNDBP1, O95273

| Variant | effect of a mutation on the interaction |
| --- | --- |
| F289L | causing an interaction |

Variants of: B3
Settings: with ggt7_human GGT7, Q9UJ14

| Variant | effect of a mutation on the interaction |
| --- | --- |
| Y127C | disrupting interaction strength |
| T165M | disrupting interaction strength |

Variants of: B4
Settings: with pnma1_human PNMA1, Q8ND90
Target sequence in this assay (Q8ND90 whole entry): as the sequence (Q8ND90 whole entry) above

| Variant | effect of a mutation on the interaction |
| --- | --- |
| T344I | with no effect |
| R7C | with no effect |

Variants of: B4
Settings: with tfcp2_human TFCP2, Q12800
Sequence of tfcp2_human TFCP2, Q12800 (Q12800 whole entry): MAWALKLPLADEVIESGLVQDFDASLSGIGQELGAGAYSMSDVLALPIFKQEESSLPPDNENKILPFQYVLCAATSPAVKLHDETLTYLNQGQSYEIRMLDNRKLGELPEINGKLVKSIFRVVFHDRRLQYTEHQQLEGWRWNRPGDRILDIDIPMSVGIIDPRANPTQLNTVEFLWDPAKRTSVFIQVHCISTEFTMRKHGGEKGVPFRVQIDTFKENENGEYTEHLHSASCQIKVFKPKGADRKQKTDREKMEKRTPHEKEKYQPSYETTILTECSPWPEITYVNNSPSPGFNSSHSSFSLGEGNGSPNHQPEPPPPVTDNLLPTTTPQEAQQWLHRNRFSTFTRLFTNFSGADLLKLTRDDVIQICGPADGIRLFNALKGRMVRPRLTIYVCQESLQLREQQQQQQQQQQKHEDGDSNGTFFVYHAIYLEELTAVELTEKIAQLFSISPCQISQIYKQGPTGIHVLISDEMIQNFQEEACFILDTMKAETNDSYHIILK

| Variant | effect of a mutation on the interaction |
| --- | --- |
| T344I | with no effect |
| R7C | with no effect |

From IntAct's records for PubMed 25910212
